In paper PMC6396743, “Two membrane-bound transcription factors regulate expression of various type-IV-pili surface structures in Sulfolobus acidocaldarius”:

T1: ArnR1 (Sulfolobus acidocaldarius, UniProt Q4J9L2 1-269)
T1 sequence: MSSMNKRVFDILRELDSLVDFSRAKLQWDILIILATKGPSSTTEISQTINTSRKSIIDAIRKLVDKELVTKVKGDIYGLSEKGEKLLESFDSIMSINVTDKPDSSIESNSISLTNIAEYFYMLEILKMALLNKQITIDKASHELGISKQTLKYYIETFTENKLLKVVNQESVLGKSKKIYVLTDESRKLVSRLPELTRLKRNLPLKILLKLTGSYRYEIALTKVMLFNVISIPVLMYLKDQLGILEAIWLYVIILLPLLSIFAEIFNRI

B1: pflaB41 (dsDNA)
DNA 1: ACGTCGATCAGCAGTCGAAAAATTGTGATTTTTGGTCGAAG
DNA 2: CTTCGACCAAAAATCACAATTTTTCGACTGCTGATCGACGT
B2: pSaci_2122 (dsDNA)
DNA 1: ATAATTATTACTCAGCGTTTATAACGTTTAACATGTTAAAA
DNA 2: TTTTAACATGTTAAACGTTATAAACGCTGAGTAATAATTAT
B3: pflaB ArnR box-1 (dsDNA)
DNA 1: ATTGTGATTTTTGGTCGAAG
DNA 2: CTTCGACCAAAAATCACAAT
B4: pflaB ArnR box-2 (dsDNA)
DNA 1: AACGTCGATCAGCAGTCGAA
DNA 2: TTTCGACTGCTGATCGACGTT
B5: paapF (dsDNA)
DNA 1: GTCTAAAGCCATAAAGATGAGCTTATTTTCATAGATTTAAGT
DNA 2: ACTTAAATCTATGAAAATAAGCTCATCTTTATGGCTTTAGAC
B6: pupsX (dsDNA)
DNA 1: TCTCCCATATTACTATTGCCTATCTCGTTAATAGTATTTTC
DNA 2: GAAAATACTATTAACGAGATAGGCAATAGTAATATGGGAGA

Biological target: T1, ArnR1
Test: MST; MST: 2.5 nM labeled dsDNA, 0.156-18 uM protein, 24 C, 10 min incubation; DNA annealed in 20 mM Tris/HCl pH 8, 200 mM NaCl, 0.05% DDM; protein in 20 mM Tris/HCl
Conditions: protein: recombinant, tags: N-terminal His10
[1] = label: 5' Alexa Fluor 647, blunt

Row | Binder | binding result [1] | also measured
1 | B1 |  | Kd [1]: 3.31 µM
2 | B2 | no binding | 
3 | B3 | no binding | 
4 | B4 |  | binding result (label: 5' Alexa Fluor 647, 5' overhang 1 nt on strand 2 as printed): no binding
5 | B5 | no binding | 
6 | B6 |  | binding result (label: Alexa Fluor 647, blunt): no binding
